Publication PMC7341804

Target: Arabinosyltransferase B (EmbB) from Mycobacterium smegmatis (Mycobacterium smegmatis) (UniProt Q50395)
Test: native MS; EmbB in 0.2 M ammonium acetate pH 6.8 with 0.01% C12E8 detergent; Q-Exactive HF Orbitrap UHMR, HCD 150 V, capillary 300 °C

**Q.** For “Arabinosyltransferase B (EmbB) from Mycobacterium smegmatis (from UniProt Q50395 1-1082) (enzyme)”, which stoichiometry N is on record?
**A.** 2
